We go through 15 variants from publication PMC9029656.

B1: reference wild-type (WT) peptide (unmodified NW peptide) prohibitin 1 (PHB1), endogenous in human blood monocytes [human (endogenous in blood monocytes)] (parent)
chain 1: NWYLPWLGTNDW
chain 2: MAAKVFESIGKFGLALAVAGGVVNSALYNVDAGHRAVIFDRFRGVQDIVVGEGTHFLIPWVQKPIIFDCRSRPRNVPVITGSKDLQNVNITLRILFRPVASQLPRIFTSIGEDYDERVLPSITTEILKSVVARFDAGELITQRELVSRQVSDDLTERAATFGLILDDVSLTHLTFGKEFTEAVEAKQVAQQEAERARFVVEKAEQQKKAAIISAEGDSKAAELIANSLATAGDGLIELRKLEAAEDIAYQLSRSRNITYLPAGQSVLLQLPQ

This experiment covers variants of B1. The experiment in a line: flow cytometry competition assay on monocytes. Conditions: with prohibitin 1 (PHB1). A general note: Flow cytometry measures light scatter and fluorescence of single cells or particles in a stream.
Where [1] appears, read: competitor 2.5 µg/ml, NW peptide 0.05 µg/mL, parent: 50, read off a plot.
The mark [2] stands for this setting: competitor 5 µg/ml, NW peptide 0.05 µg/mL, parent: 82, read off a plot.
The mark [3] stands for this setting: competitor 10 µg/ml, NW peptide 0.05 µg/mL, parent: 92, read off a plot.
Where [4] appears, read: competitor 20 µg/ml, NW peptide 0.05 µg/mL, parent: 95, read off a plot.
[5] abbreviates: competitor 2.5 µg/ml, experimental conditions as in Figure 7, parent: 45, read off a plot.
[6] abbreviates: competitor 5 µg/ml, experimental conditions as in Figure 7, parent: 60, read off a plot.
Where [7] appears, read: competitor 10 µg/ml, experimental conditions as in Figure 7, parent: 85, read off a plot.
Setting [8] is: competitor 20 µg/ml, experimental conditions as in Figure 7, parent: 93, read off a plot.

Consider chain 1 T9A, for which the screen value came out at 10% under setting [1], 20% under setting [2], 60% under setting [3] and 80% under setting [4].
Consider chain 1 G8A, for which the screen value was 0% under setting [1], 10% under setting [2], 45% under setting [3] and 65% under setting [4].
In the same order, the values of chain 1 L4A are 0%, 0%, 2.5% and 0%.
For the variant chain 1 W6A, the screen value is, setting by setting: under setting [1], 0%; under setting [2], 0%; under setting [3], 8%; under setting [4], 12%.
Consider chain 1 D11A, for which the screen value came out at 47% under setting [1], 80% under setting [2], 85% under setting [3] and 98% under setting [4].
As to chain 1 L4V L7V, the screen value under setting [5] turned out to be 50%, the screen value under setting [6] worked out at 55%, the screen value under setting [7] was determined as 86% and the screen value under setting [8] was 95%.
For chain 1 W2A, the screen value was determined as 0% under setting [1], 0% under setting [2], 0% under setting [3] and 2.5% under setting [4].
Turning to chain 1 L7A, the screen value under setting [1] is 0%, the screen value under setting [2] was 0%, the screen value under setting [3] turned out to be 0% and the screen value under setting [4] was found to be 2.5%.
With chain 1 W2Y W6Y W12Y, the screen value came out at 5% under setting [5] and 3% under setting [8].
Turning to chain 1 W2F W6F W12F, the screen value under setting [6] worked out at 7%, the screen value under setting [7] came out at 3% and the screen value under setting [8] was found to be 4%.
For the variant chain 1 P5A, the screen value under setting [1] turned out to be 0%, the screen value under setting [2] worked out at 12%, the screen value under setting [3] came out at 30% and the screen value under setting [4] came to 65%.
On to chain 1 W12A, for which the screen value reads like this: under setting [1], 0%; under setting [2], 9%; under setting [3], 10%; under setting [4], 8%.
chain 1 N10A: the screen value reads like this: under setting [1], 56%; under setting [2], 70%; under setting [3], 86%; under setting [4], 95%.
Taken in the same sequence, the figures for chain 1 N1A were 30%, 45%, 67% and 90%.
In the case of chain 1 Y3A, the screen value by setting is: under setting [1], 23%; under setting [2], 54%; under setting [3], 56%; under setting [4], 68%.
